Measurements from paper PMC12591191 (2025).
Where no end group is shown, it is not given here. The star is where a group is joined. Biotin = O=C1N[C@H]2[C@H](CS[C@H]2CCCCC(=O)*)N1; Myristoyl = CCCCCCCCCCCCCC(=O)*

Columns and labels:
SIRT6 S56Y [1] = target: T1, SIRT6 S56Y (human, UniProt Q8N6T7 1-355, S56Y); experiment: BLI; Mg2+
SIRT6 R65A [2] = target: T2, SIRT6 R65A (human, UniProt Q8N6T7 1-355, R65A); experiment: BLI; Mg2+
SIRT6 H133Y [3] = target: T3, SIRT6 H133Y (human, UniProt Q8N6T7 1-355, H133Y); experiment: BLI; Mg2+
T3 sequence (Q8N6T7 whole entry H133Y): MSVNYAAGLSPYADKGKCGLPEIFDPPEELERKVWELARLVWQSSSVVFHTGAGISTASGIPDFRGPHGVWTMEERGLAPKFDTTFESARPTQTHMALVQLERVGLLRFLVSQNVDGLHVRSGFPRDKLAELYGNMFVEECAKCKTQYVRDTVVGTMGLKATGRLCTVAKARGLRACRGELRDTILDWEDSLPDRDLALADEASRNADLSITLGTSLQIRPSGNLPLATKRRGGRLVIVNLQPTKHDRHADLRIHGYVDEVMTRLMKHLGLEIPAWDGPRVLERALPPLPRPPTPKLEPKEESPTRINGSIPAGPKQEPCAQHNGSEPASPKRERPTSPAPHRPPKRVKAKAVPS

SIRT6 S56Y [4] = target: T1, SIRT6 S56Y; experiment: BLI
SIRT6 G60A = SIRT6 G60A (Homo sapiens); experiment: BLI
SIRT6 G60A (Homo sapiens), sequence (chain, as listed by the source G60A): as the sequence (Q8N6T7 whole entry H133Y) above, with G60A, Y133H counted along it

SIRT6 R65A [5] = target: T2, SIRT6 R65A; experiment: BLI
SIRT6 H133Y [6] = target: T3, SIRT6 H133Y; experiment: BLI

T1 sequence (Q8N6T7 whole entry S56Y): as the sequence (Q8N6T7 whole entry H133Y) above, with S56Y, Y133H counted along it
T2 sequence (Q8N6T7 whole entry R65A): as the sequence (Q8N6T7 whole entry H133Y) above, with R65A, Y133H counted along it

Kd (SIRT6 S56Y [1]): 0.61 µM
Kd (SIRT6 R65A [2]): 1.8 µM
Kd (SIRT6 H133Y [3]): 0.68 µM
Kd (SIRT6 S56Y [4]): 1.6 µM
Kd (SIRT6 G60A): 1.3 µM
Kd (SIRT6 R65A [5]): 2 µM
Kd (SIRT6 H133Y [6]): 3.2 µM
Binder: Biotin-KQTARK(Myristoyl)STGGKARRRRR [B-H3K9^Myr-5R (biotin-KQTARK^MyrSTGGKARRRRR)]
